From US20240336918

Legend:
[1] = biological target: T1, LIN28A (UniProt Q9H9Z2); test: EMSA; conditions: higher-order aggregates above 50 nM
T1 sequence: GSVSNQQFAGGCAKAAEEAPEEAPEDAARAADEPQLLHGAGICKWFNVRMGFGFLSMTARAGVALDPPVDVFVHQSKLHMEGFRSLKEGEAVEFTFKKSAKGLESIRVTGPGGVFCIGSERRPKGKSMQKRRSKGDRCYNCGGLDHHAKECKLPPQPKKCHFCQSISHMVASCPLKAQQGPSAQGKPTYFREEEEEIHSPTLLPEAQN

[2] = biological target: T1, LIN28A; test: filter; conditions: transition between unbound and bound at ~10 nM; aggregates retained on PES at 50 nM and above

Substance: pre-let-7a miRNA
- Kd [1]: 25 nM
- Kd [2]: 10 nM
